# Data reported in the RNAGym collection of RNA variant scans (doi:10.7554/elife.80360).
# B1: Twister Ribozyme (parent)
# chain: AACACUGCCAAUGCCGGUCCCAAGCCCGGAUAAAAGUGGAGGGGGCGG
# Variants of: B1
# Assay: self-cleavage, relative activity (ratio to wild type); higher = more cleavage; co-transcriptional
row,Variant,self-cleavage
1,U12A A30C,0.893
2,C20U A35G,0.664
3,C3A C9G,0.217
4,U18C G29U,0.27
5,A33G A40U,0.184
6,C9U U12A,0.794
7,G17A U37G,0.175
8,C5A G16C,0.098
9,A4G A32G,1.05
10,C25G G36C,0.0714
11,G39A C46G,0.537
12,C27U G47U,0.632
13,U12G C14G,0.124
14,A11U G38A,1.16
15,G36A C46A,0.582
16,G45A C46U,0.848
17,C8A A11G,0.588
18,A10C C14U,1.01
19,G36A U37A,0.166
20,A22G U31A,0.196
21,C19G C27U,0.131
22,C19U G36A,0.167
23,A23G C46G,0.405
24,U6G U12C,0.35

row,Variant,self-cleavage
1,G7A G47C,0.185
2,G17C G42U,0.0737
3,G44A,0.959
4,G7U G43A,0.0755
5,C19A G24C,0.0773
6,C14U C27G,0.108
7,C20U G45C,0.425
8,C5U C21U,0.0809
9,G17U G45A,0.148
10,A11C C14A,0.69
11,A10C A33C,1.14
12,C15A C21G,0.0777
13,U18G,0.0785
14,U18C,0.664
15,A4G G7C,0.0363
16,C9G G13U,0.933
17,A2C G38C,0.0461
18,C14A G28A,0.818
19,C20A G43A,0.118
20,G42C,0.622
21,G24C G43C,0.0497
22,C9G G17C,0.0619
23,A10G C14G,0.0768
24,C5G C21G,0.155

row,Variant,self-cleavage
1,C3A C14A,0.15
2,A23C A33C,0.0964
3,G29U G41U,0.521
4,C19A A32G,0.177
5,U6A C27G,0.11
6,C15A A33U,0.541
7,C9U C46G,0.651
8,U31C A33U,1.08
9,A10G C26U,0.285
10,A40C G48A,0.192
11,A35C G44C,0.943
12,G28A G39C,0.154
13,A30U A40C,0.2
14,G43U G48C,0.205
15,A4G C21U,0.118
16,C5G C46A,0.776
17,C14A C46U,0.827
18,U6G A34G,0.392
19,A4C C27U,0.112
20,C5A C9G,0.0413
21,G28A U31A,0.904
22,A32U A40C,0.204
23,A32U A40G,0.108
24,A10U A35U,0.89

row,Variant,self-cleavage
1,C14U C46U,1.01
2,A1G G41A,0.176
3,C14U C21A,0.108
4,U12A G17A,0.85
5,C3G U12A,0.658
6,C3G U12G,0.4
7,A33U G48A,0.889
8,G7U G47U,0.0775
9,G17C G24U,0.0734
10,G36U G45A,0.4
11,G28A U37A,0.465
12,A30G G44A,0.85
13,U37G G47U,0.724
14,C9A G36C,0.107
15,G16U U37C,0.261
16,C15A G29A,0.793
17,C3U A22G,0.0518
18,G29U G48C,1.11
19,G29U G47A,0.71
20,A2C G48U,0.0976
21,G41A G48U,0.511
22,C3G G28C,0.167
23,G38A G42U,0.133
24,C3U A32C,0.532

row,Variant,self-cleavage
1,C3U A32G,0.369
2,G17U A33C,0.199
3,A34C C46G,0.154
4,C5G C26U,0.104
5,A4C G38C,0.61
6,A1U G16C,0.0739
7,A1G A10U,0.428
8,U12G G16A,0.864
9,U12G G16U,0.937
10,C46A,0.927
11,U37G G38U,0.127
12,A35G G42A,0.115
13,C21U A40U,0.0831
14,C46A G48U,0.889
15,A2C G16A,0.116
16,A1G A23C,0.202
17,C8U G36U,0.109
18,A1U G29U,0.0849
19,A10U A23G,0.461
20,U12C A22C,0.861
21,C3U C15U,0.335
22,C5A G41U,0.132
23,U18A A23U,0.753
24,G17U G39A,0.119

row,Variant,self-cleavage
1,C21A A22G,0.101
2,G17U G38A,0.206
3,G7U U31A,0.133
4,A32U G44C,0.934
5,A4C A22G,0.0686
6,G7U A32G,0.0756
7,G36C G38U,0.116
8,A1C A32U,0.228
9,A34U C46U,0.84
10,G43U G47A,0.201
11,A35C G42A,0.32
12,A23C G45C,0.125
13,G42A C46A,0.251
14,C14A U18G,0.0811
15,G29A G48U,0.916
16,C20G G44A,0.18
17,C5G G28U,0.279
18,A4G G45U,0.741
19,G42A G44U,0.173
20,G7U G41C,0.111
21,U18C G41C,0.0753
22,A23U G48A,0.389
23,A2U A32G,0.605
24,A1G C46A,0.412

row,Variant,self-cleavage
1,G16C A33G,0.403
2,C27G A34G,0.124
3,A2G A34U,0.166
4,A11U G44U,1.07
5,C8U C21A,0.0385
6,C3U G13A,0.402
7,C9A A22G,0.101
8,C9A A22U,0.259
9,A2C C19U,0.0609
10,A32U G43A,0.239
11,C5U A10U,0.816
12,U31C U37G,1
13,G24A G48A,0.121
14,A1C A10C,0.0756
15,A32U G47A,0.883
16,A32U G47U,0.83
17,C19G G38C,0.152
18,A10C G24C,0.0859
19,G36C G44U,0.512
20,C20U A32G,0.82
21,C20U A32U,0.887
22,A22U U37A,0.256
23,G29C A30U,1.1
